Results published in PMC7888922.

Experiments:
[1] = biological target: sACE2_(2).v2.4-IgG1 (human) (UniProt Q9BYF1); test: BLI
[2] = biological target: WT sACE2_(2)-IgG1 (human) (UniProt Q9BYF1); test: BLI

Substance	Kd [1]	koff [1]	kon [1]	Kd [2]	koff [2]	kon [2]
SARS-CoV-2 RBD-8h (from UniProt P0DTC2 333-529) (domain or fragment)	0.4 nM	0.00028 s⁻¹	660000 M⁻¹ s⁻¹	–	–	–
RsSHC014 RBD-8h (domain or fragment)	1.3 nM	0.002 s⁻¹	1.6e+06 M⁻¹ s⁻¹	29 nM	0.026 s⁻¹	880000 M⁻¹ s⁻¹
